Reference: patent US20140173783

What was measured:
[1] = tested on: ZFN 25716 (E32 ZFN6 monomer) (artificial); assay: cell_activity; conditions: pair 25716/25717, NGS indels in maize Hi-II callus
[2] = tested on: ZFN 25717 (E32 ZFN6 monomer) (artificial); assay: cell_activity; conditions: pair 25716/25717, NGS indels in maize Hi-II callus

Sequence: TGATCGCATCGGGCATCGGCGACTGATG (double strand) [25716 target]
- activity (% of IPPK2 ZFN activity) [1]: 380

Sequence: CGGAAGCGGATGGCCCGCTTCTTTAGAA (double strand) [25717 target]
- activity (% of IPPK2 ZFN activity) [2]: 380
